# Source: patent US20190015518A1, “DRUG DELIVERY COMPOSITIONS AND METHODS” (priority 2016, published 2019)
# Tests used:
# [1] = tested on: MDA-1986 head and neck tumors; experiment: Anticancer efficacy, orthotopic xenograft model of human HNSCC; type: in vivo, mouse; design: key to tumor response, Modified RECIST: PR=Partial Response (>30% reduction); PD=Progressive Disease (>30% tumor growth); SD=Stable Disease (neither PR nor PD criteria met)
# Experimental: The MDA-1986 cells were prepared in PBS at a concentration of 2×10^7 cells/mL. Female NU/NU mice were anesthetized under 2% isoflurane in O2, and 50 μL of cell solution was injected into the oral sub-mucosa of the mice using a 27-ga needle. All procedures in the animal study were approved by the Institutional Animal Care and Use Committee of the University of Kansas. Tumor growth was monitored twice weekly by measurement with a digital caliper, and the tumor volume was calculated as 0.52×(width)^2×(length). […] The drugs were given weekly for 3 consecutive weeks.
# [2] = Hematology of a healthy dog given 1.5 mg/kg on day 1 and 2.0 mg/kg on day 70, sub-mucosa; type: in vivo
# Experimental: Before each dose, the dog was examined by clinical chemistry, hematology, and urinalysis. Additional examinations of clinical chemistry and hematology were performed on days 7, 14, and 42 after the first dose. Additional tests of urinalysis were performed on days 7 and 14 after the first dose. The potential drug-induced toxicities were monitored for 56 days after the second dose. Specifically, clinical chemistry and urinalysis were performed on days 7, 14, 21, and 56, and hematology was performed on days 7, 14, and 56 after the second dose to evaluate the tolerability and toxicity of the formulation.
# Hematology examinations were performed at pre- and post-dose for both injections. The injections were given via the sub-mucosa in the mouth.
# [3] = 20 mg/kg s.c., three weekly injections
substance,measurement,setting,value
HA-cis-[Pt(NH3)2(N^α-Acetyl-L-Lysine)] [75HA-Lys-Pt],average tumor size by the end of the sixth week,[1]; [3],less than 200 mm^3
same,tumor progression delay,[1]; [3],delayed by four weeks
same,"tumor response, Modified RECIST",[1]; animal #1,PR (PR=Partial Response (>30% reduction))
same,"tumor response, Modified RECIST",[1]; animal #2,PR (PR=Partial Response (>30% reduction))
same,"tumor response, Modified RECIST",[1]; animal #3,PR (PR=Partial Response (>30% reduction))
same,"tumor response, Modified RECIST",[1]; animal #4,SD
same,"tumor response, Modified RECIST",[1]; animal #5,SD
same,"tumor response, Modified RECIST",[1]; animal #6,PR (PR=Partial Response (>30% reduction))
same,"tumor response, Modified RECIST",[1]; animal #7,SD
same,"tumor response, Modified RECIST",[1]; animal #8,PR (PR=Partial Response (>30% reduction))
same,rate of partial response (PR),[1]; three weekly injections,62.5%
same,"Differential white blood cell count, % BASO","[2]; 2 mg/kg, 7 days after",0.9%
same,"Differential white blood cell count, % EOS","[2]; 2 mg/kg, 7 days after",1.9%
same,"Differential white blood cell count, % LUC","[2]; 2 mg/kg, 7 days after",0.8%
same,"Differential white blood cell count, % LYMPH","[2]; 2 mg/kg, 7 days after",29%
same,"Differential white blood cell count, % MONO","[2]; 2 mg/kg, 7 days after",7.5%
same,"Differential white blood cell count, % NEUT","[2]; 2 mg/kg, 7 days after",60%
same,Hematocrit,"[2]; 2 mg/kg, 7 days after",38%
same,Hemoglobin,"[2]; 2 mg/kg, 7 days after",12.7 g/dL
same,Hemoglobin distribution width,"[2]; 2 mg/kg, 7 days after",1.84 g/dL
same,Mean corpuscular (cell) hemoglobin,"[2]; 2 mg/kg, 7 days after",21.9 pg
same,Mean corpuscular (cell) hemoglobin concentration,"[2]; 2 mg/kg, 7 days after",33.4 g/dL
same,Mean corpuscular (cell) volume,"[2]; 2 mg/kg, 7 days after",65.6 fL
same,Platelet count,"[2]; 2 mg/kg, 7 days after",36 10^3/μL
same,Red blood cell count,"[2]; 2 mg/kg, 7 days after",5.79 10^6/μL
same,Red cell distribution width,"[2]; 2 mg/kg, 7 days after",13.5%
same,Reticulocyte count,"[2]; 2 mg/kg, 7 days after",1.59%
same,White blood cell count,"[2]; 2 mg/kg, 7 days after",8.2 10^3/μL
same,"Differential white blood cell count, % BASO","[2]; 2 mg/kg, 14 days after",0.5%
same,"Differential white blood cell count, % EOS","[2]; 2 mg/kg, 14 days after",3.4%
same,"Differential white blood cell count, % LUC","[2]; 2 mg/kg, 14 days after",0.6%
same,"Differential white blood cell count, % LYMPH","[2]; 2 mg/kg, 14 days after",28.5%
same,"Differential white blood cell count, % MONO","[2]; 2 mg/kg, 14 days after",4.3%
same,"Differential white blood cell count, % NEUT","[2]; 2 mg/kg, 14 days after",62.7%
same,Hematocrit,"[2]; 2 mg/kg, 14 days after",35.6%
same,Hemoglobin,"[2]; 2 mg/kg, 14 days after",11.8 g/dL
same,Hemoglobin distribution width,"[2]; 2 mg/kg, 14 days after",2.33 g/dL
same,Mean corpuscular (cell) hemoglobin,"[2]; 2 mg/kg, 14 days after",21.6 pg
same,Mean corpuscular (cell) hemoglobin concentration,"[2]; 2 mg/kg, 14 days after",33.1 g/dL
same,Mean corpuscular (cell) volume,"[2]; 2 mg/kg, 14 days after",65.2 fL
same,Platelet count,"[2]; 2 mg/kg, 14 days after",232 10^3/μL
same,Red blood cell count,"[2]; 2 mg/kg, 14 days after",5.47 10^6/μL
same,Red cell distribution width,"[2]; 2 mg/kg, 14 days after",14.2%
same,Reticulocyte count,"[2]; 2 mg/kg, 14 days after",3.2%
same,White blood cell count,"[2]; 2 mg/kg, 14 days after",10.43 10^3/μL
same,"Differential white blood cell count, % BASO","[2]; 2 mg/kg, 56 days after",0.7%
same,"Differential white blood cell count, % EOS","[2]; 2 mg/kg, 56 days after",4.3%
same,"Differential white blood cell count, % LUC","[2]; 2 mg/kg, 56 days after",0.5%
same,"Differential white blood cell count, % LYMPH","[2]; 2 mg/kg, 56 days after",26.6%
same,"Differential white blood cell count, % NEUT","[2]; 2 mg/kg, 56 days after",63.4%
same,Hematocrit,"[2]; 2 mg/kg, 56 days after",36.9%
same,Hemoglobin,"[2]; 2 mg/kg, 56 days after",12.1 g/dL
same,Hemoglobin distribution width,"[2]; 2 mg/kg, 56 days after",2.04 g/dL
same,Mean corpuscular (cell) hemoglobin,"[2]; 2 mg/kg, 56 days after",21.4 pg
same,Mean corpuscular (cell) hemoglobin concentration,"[2]; 2 mg/kg, 56 days after",32.8 g/dL
same,Mean corpuscular (cell) volume,"[2]; 2 mg/kg, 56 days after",65.4 fL
same,Red blood cell count,"[2]; 2 mg/kg, 56 days after",5.64 10^6/μL
same,Red cell distribution width,"[2]; 2 mg/kg, 56 days after",13.7%
same,Reticulocyte count,"[2]; 2 mg/kg, 56 days after",1.3%
same,White blood cell count,"[2]; 2 mg/kg, 56 days after",11.3 10^3/μL
same,"Differential white blood cell count, % BASO","[2]; […], 7 days after",0.7%
same,"Differential white blood cell count, % EOS","[2]; […], 7 days after",2.0%
same,"Differential white blood cell count, % LUC","[2]; […], 7 days after",0.6%
same,"Differential white blood cell count, % LYMPH","[2]; […], 7 days after",37.6%
same,"Differential white blood cell count, % NEUT","[2]; […], 7 days after",55.4%
same,Hematocrit,"[2]; […], 7 days after",37.8%
same,Hemoglobin,"[2]; […], 7 days after",12.7 g/dL
same,Hemoglobin distribution width,"[2]; […], 7 days after",2.08 g/dL
same,Mean corpuscular (cell) hemoglobin,"[2]; […], 7 days after",23.0 pg
same,Mean corpuscular (cell) hemoglobin concentration,"[2]; […], 7 days after",33.6 g/dL
same,Mean corpuscular (cell) volume,"[2]; […], 7 days after",68.4 fL
same,Platelets (footnote a),"[2]; […], 7 days after","^aPlatelets appear adequate. Platelet clumps observed, number not reported."
same,Red blood cell count,"[2]; […], 7 days after",5.53 10^6/μL
same,Red cell distribution width,"[2]; […], 7 days after",13.3%
same,Reticulocyte count,"[2]; […], 7 days after",1.40%
same,White blood cell count,"[2]; […], 7 days after",7.69 10^3/μL
same,"Differential white blood cell count, % BASO","[2]; […], 14 days",0.7%
same,"Differential white blood cell count, % EOS","[2]; […], 14 days",2.0%
same,"Differential white blood cell count, % LUC","[2]; […], 14 days",0.6%
same,"Differential white blood cell count, % LYMPH","[2]; […], 14 days",37.6%
same,"Differential white blood cell count, % NEUT","[2]; […], 14 days",55.4%
same,Hematocrit,"[2]; […], 14 days",38.2%
same,Hemoglobin,"[2]; […], 14 days",12.6 g/dL
same,Hemoglobin distribution width,"[2]; […], 14 days",2.29 g/dL
same,Mean corpuscular (cell) hemoglobin,"[2]; […], 14 days",22.6 pg
same,Mean corpuscular (cell) hemoglobin concentration,"[2]; […], 14 days",33.0 g/dL
same,Mean corpuscular (cell) volume,"[2]; […], 14 days",68.7 fL
same,Platelet count,"[2]; […], 14 days",307 10^3/μL
same,Red blood cell count,"[2]; […], 14 days",5.56 10^6/μL
same,Red cell distribution width,"[2]; […], 14 days",13.7%
same,Reticulocyte count,"[2]; […], 14 days",1.84%
same,White blood cell count,"[2]; […], 14 days",12.91 10^3/μL
same,"Differential white blood cell count, % BASO","[2]; […], 42 days",1.4%
same,"Differential white blood cell count, % EOS","[2]; […], 42 days",2.0%
same,"Differential white blood cell count, % LUC","[2]; […], 42 days",0.8%
same,"Differential white blood cell count, % LYMPH","[2]; […], 42 days",37.6%
same,"Differential white blood cell count, % MONO","[2]; […], 42 days",5.1%
same,"Differential white blood cell count, % NEUT","[2]; […], 42 days",53.1%
same,Hematocrit,"[2]; […], 42 days",46.4%
same,Hemoglobin,"[2]; […], 42 days",15.3 g/dL
same,Hemoglobin distribution width,"[2]; […], 42 days",1.71 g/dL
same,Mean corpuscular (cell) hemoglobin,"[2]; […], 42 days",22.4 pg
same,Mean corpuscular (cell) hemoglobin concentration,"[2]; […], 42 days",33.0 g/dL
same,Mean corpuscular (cell) volume,"[2]; […], 42 days",67.9 fL
same,Platelet count,"[2]; […], 42 days",307 10^3/μL
same,Red blood cell count,"[2]; […], 42 days",6.83 10^6/μL
same,Red cell distribution width,"[2]; […], 42 days",12.4%
same,White blood cell count,"[2]; […], 42 days",10.82 10^3/μL
